Assay results taken from US20190382488A1 (IMAGINAB, published 2019).
Values belong to the binder of their own block, whether it stands above or below them.

Target: T1, recombinant human CD8 (rhCD8) (human, UniProt P01732 22-182)
T1 construct: Soluble purified recombinant protein; also called purified recombinant human CD8 protein; soluble CD8
Assay: SPR (BIAcore), minibody captured via anti-human IgG Fc, hCD8 analyte at 50 nM
Source text: Surface plasma resonance (SPR) was used to determine the binding affinity for all the IAb_Mb_CD8 variants to recombinant human CD8 (Table 8.0). The minibody protein in the supernatant was captured on to the BIAcore chip using an anti-human IgG (Fc-specific) antibody. The amount of minibody captured on the chip was normalized to enable a direct comparison of binding affinity between the variants as a kinetic “scouting” experiment to rank affinities. The rhCD8 protein was passed over the captured minibody protein to measure binding.
Table 8.0 summarizes the measured association (ka), dissociation (kd), and kD constants for the IAb_Mb_CD8 variants binding to recombinant hCD8. The variants were captured on a BIAcore chip using anti-human Fc-specific IgG antibody.

T1 sequence (P01732 22-182 limits assumed): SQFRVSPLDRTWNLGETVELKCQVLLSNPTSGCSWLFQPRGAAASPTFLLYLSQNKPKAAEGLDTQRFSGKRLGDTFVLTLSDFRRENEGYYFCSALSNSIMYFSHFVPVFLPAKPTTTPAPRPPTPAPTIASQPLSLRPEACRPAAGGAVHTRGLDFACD

Ka: 2.2e+08 M⁻¹
Kd: 4.5 nM
koff: 0.0032 s⁻¹
kon: 720000 M⁻¹ s⁻¹
B1: IAb_Mb2c_CD8 (other)
chain: QVQLVQSGAEVKKPGATVKISCKVSGFNIKDTYIHFVQQAPGKGLEWIGRIDPANDNTLYASKFQGKATITADTSTDTAYMELSSLRSGDTAVYYCGRGYGYYVFDHWGQGTLVTVSSGSTSGGGSGGGSGGGGSSDVQITQSPSSLSASVGDRVTITCRTSRSISQYLAWYQQKPGKVPKLLIYSGSTLQSGVPSRFSGSGSGTDFTLTISSLQPEDVATYYCQQHNENPLTFGGGTKVEIKEPKSCDKTHTCPPCGGGSSGGGSGGQPREPQVYTLPPSRDELTKNQVSLTCLVKGFYPSDIAVEWESNGQPENNYKTTPPVLDSDGSFFLYSKLTVDKSRWQQGNVFSCSVMHEALHNHYTQKSLSLSPGK
notes: also called variant 2c

Ka: 1.8e+08 M⁻¹
Kd: 5.5 nM
koff: 0.0029 s⁻¹
kon: 540000 M⁻¹ s⁻¹
B2: IAb_Mb2d_CD8 (other)
chain: QVQLVQSGAEVKKPGATVKISCKVSGFNIKDTYIHFVQQAPGKGLEWIGRIDPANDNTLYASKFQGKATITADTSTDTAYMELSSLRSEDTAVYYCGRGYGYYVFDHWGQGTLVTVSGSTSGGGSGGGSGGGGSSDVQITQSPSSLSASVGDRVTITCRTSRSISQYLAWYQQKPGKVPKLLIYSGSTLQSGVPSRFSGSGSGTDFTLTISSLQPEDVATYYCQQHNENPLTFGGGTKVEIKEPKSCDKTHTCPPCGGGSSGGGSGGQPREPQVYTLPPSRDELTKNQVSLTCLVKGFYPSDIAVEWESNGQPENNYKTTPPVLDSDGSFFLYSKLTVDKSRWQQGNVFSCSVMHEALHNHYTQKSLSLSPGK
notes: also called variant 2d

Ka: 5.3e+08 M⁻¹
Kd: 1.9 nM
koff: 0.0012 s⁻¹
kon: 650000 M⁻¹ s⁻¹
B3: IAb_Mb1a_CD8 (other)
chain: DVQITQSPSSLSASVGDRVTITCRTSRSISQYLAWYQQKPGKVPKLLIYSGSTLQSGVPSRFSGSGSGTDFTLTISSLQPEDVATYYCQQHNENPLTFGGGTKVEIKGSTSGGGSGGGSGGGGSSEVQLVESGGGLVQPGGSLRLSCAASGFNIKDTYIHFVRQAPGKGLEWIGRIDPANDNTLYASKFQGKATISADTSKNTAYLQMNSLRAGDTAVYYCGRGYGYYVFDHWGQGTLVTVSSEPKSCDKTHTCPPCGGGSSGGGSGGQPREPQVYTLPPSRDELTKNQVSLTCLVKGFYPSDIAVEWESNGQPENNYKTTPPVLDSDGSFFLYSKLTVDKSRWQQGNVFSCSVMHEALHNHYTQKSLSLSPGK
notes: also called variant 1a

Ka: 2.2e+08 M⁻¹
Kd: 4.6 nM
koff: 0.0022 s⁻¹
kon: 480000 M⁻¹ s⁻¹
B4: IAb_Mb2a_CD8 (other)
chain: EVQLVESGGGLVQPGGSLRLSCAASGFNIKDTYIHFVRQAPGKGLEWIGRIDPANDNTLYASKFQGKATISADTSKNTAYLQMNSLRAGDTAVYYCGRGYGYYVFDHWGQGTLVTVSSGSTSGGGSGGGSGGGGSSDVQITQSPSSLSASVGDRVTITCRTSRSISQYLAWYQQKPGKVPKLLIYSGSTLQSGVPSRFSGSGSGTDFTLTISSLQPEDVATYYCQQHNENPLTFGGGTKVEIKEPKSCDKTHTCPPCGGGSSGGGSGGQPREPQVYTLPPSRDELTKNQVSLTCLVKGFYPSDIAVEWESNGQPENNYKTTPPVLDSDGSFFLYSKLTVDKSRWQQGNVFSCSVMHEALHNHYTQKSLSLSPGK
notes: also called variant 2a

Ka: 3.4e+08 M⁻¹
Kd: 2.9 nM
koff: 0.002 s⁻¹
kon: 700000 M⁻¹ s⁻¹
B5: IAb_Mb1d_CD8 (other)
chain: DVQITQSPSSLSASVGDRVTITCRTSRSISQYLAWYQQKPGKVPKLLIYSGSTLQSGVPSRFSGSGSGTDFTLTISSLQPEDVATYYCQQHNENPLTFGGGTKVEIKGSTSGGGSGGGSGGGGSSQVQLVQSGAEVKKPGATVKISCKVSGFNIKDTYIHFVQQAPGKGLEWIGRIDPANDNTLYASKFQGKATITADTSTDTAYMELSSLRSEDTAVYYCGRGYGYYVFDHWGQGTLVTVSEPKSCDKTHTCPPCGGGSSGGGSGGQPREPQVYTLPPSRDELTKNQVSLTCLVKGFYPSDIAVEWESNGQPENNYKTTPPVLDSDGSFFLYSKLTVDKSRWQQGNVFSCSVMHEALHNHYTQKSLSLSPGK
notes: also called variant 1d
